In article PMC12316982 (Nature Communications, 2025):

biological target: stabilized neuraminidase protein (sNAp) of A/Vietnam/1203/2004 (VN04, H5N1) (Influenza A virus A/Vietnam/1203/2004 …, UniProt Q6DPL2, stabilised); experiment: ELISA; conditions: both partners purified

Row | Binder | binding result
1 | NCS.1.3 (human IgG1) (antibody, V domains shown) VH: QVQLQESGPRLVKPSETLSLTCSVSGESISSGGYYWTWIRQHPGKGLEWIGNIFDTGSTDYSPSLKTRLTISIDTSKNQFYLRLTSATAADTAVYYCARVGFSLETDRPYYLGLDVWGQGTTVTVSS VL: DIVMTQSPLTLPVTPGEPASISCRSSQSLLHSNGYTYLDWYLQKPGQSPQLLIYFASNRASGVPDRFSGSGSGTYFTLKISRVEAEDVGVYYCMQAVQSPWTFGQGTKVEIK | binds
2 | NCS.1.1 (human IgG1) (antibody, V domains shown) VH: QVQLQESGPRLVKPSETLSLTCSVSGESISSGGYYWTWIRQHPGKGLEWIGNIFDTGSTDYSPSLKTRLTISIDTSKNQFYLRLNSATAADTAVYYCARVGFSLETDRPYYLGLDVWGQGTTVTVSS VL: DIVMTQSPLSLPVTPGEPASISCRSSQSLLHSNGYTYLDWYLQKPGQSPQLLISFTSNRASGVPDRFSGSGSGTYFTLKISRVEAEDVGVYYCMQAVQTPWTFGQGTKVEIK | binds
3 | NCS.1 (human IgG1) (antibody, V domains shown) VH: QVQLPESGPRLVKPSETLSLTCSVSGESISSGGYYWTWIRQHPGKGLEWIGNIFDTGSTHYSPSLKTRLTISIDTSKNQFYLRLNSATAADTAVYYCARVGYSLETDRPYYFGLDVWGQGTTVTVSS VL: DIVMTQSPLSLPVTPGEPASISCRSSQSLLHSNGYTYLDWYLQKPGQSPQLLIYLASNRASGVPDRFSGSGSGTYFTLKISRVEAEDVGVYYCMQAVQTPWTFGQGTKVEIK | binds
